± gives the standard deviation of the averaged measurements.
What follows are sequences tested on ATP (assay: switch fluorescence ratio, 500 uM ATP over buffer (Cy3 cluster intensity, sum of 5 cycles each) (fold (ratio)); higher = stronger signal-on switching upon ATP binding; sequences stand for … in TCGTCGGCAGCGTCAGATGTGTATAAGAGACAGTTTTTTTTTTTTTTTTTTTTTTTTT…TC). Details: aptamer strand: ATP DNA aptamer (quencher-CACCTGGGGGAGTATTGCGGAGGAAGG + anchor), 100 nM annealed; ATP concentration: 500 uM.
How it was run: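 The quencher-labelled ATP aptamer, at 100 nM, was annealed to Cy3-labelled switching-strand clusters on a modified Illumina MiSeq flow-cell. The clusters were imaged in selection buffer, then after 15 min with 500 uM ATP at 22 °C, and this buffer/ATP cycle ran five times with NaOH stripping and re-annealing between runs. Per-cluster fluorescence ratios, summed target-cycle over summed buffer-cycle Cy3 intensity, were averaged per switch-domain sequence. Clusters outside 100-1000 RFU were excluded.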
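Also: ATP exposure 15 min at 22 °C before imaging.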

CCGGAACGGT was tested. Which switch fluorescence ratio did it give?
Its switch fluorescence ratio is 0.986 ± 0.031.

Which switch fluorescence ratio does the source give for CCGGACGGAA here?
Its switch fluorescence ratio is 1.12 ± 0.071.

With CCGGAGAGTT as the sequence, how does the switch fluorescence ratio read?
The switch fluorescence ratio was 1.58 ± 0.11.

Which switch fluorescence ratio does the source give for CCGGAGGAGA here?
Its switch fluorescence ratio is 1.06 ± 0.017.

Which switch fluorescence ratio does the source give for CCGGATGTTG here?
Its switch fluorescence ratio is 0.987 ± 0.028.

CCGGCTTAGA was tested. Which switch fluorescence ratio did it give?
The switch fluorescence ratio was 1.14 ± 0.2.

Which switch fluorescence ratio does the source give for CCGGGAGCCG here?
The switch fluorescence ratio was 1.023 ± 0.0053.

Which switch fluorescence ratio does the source give for CCGGGATCAG here?
The switch fluorescence ratio was 1.09 ± 0.035.

For CCGGGATTTT, which switch fluorescence ratio is on record?
Its switch fluorescence ratio is 1.09 ± 0.13.

Which switch fluorescence ratio does the source give for CCGGGCAGAG here?
Its switch fluorescence ratio is 1.96 ± 0.071.

With CCGGGCCATC as the sequence, how does the switch fluorescence ratio read?
The switch fluorescence ratio was 2.3 ± 0.038.

Which switch fluorescence ratio does the source give for CCGGGCGAGC here?
The switch fluorescence ratio was 1.08 ± 0.059.

With CCGGGCGTCG as the sequence, how does the switch fluorescence ratio read?
Its switch fluorescence ratio is 1.26 ± 0.31.

CCGGGCTTAG was tested. Which switch fluorescence ratio did it give?
The switch fluorescence ratio was 1.28 ± 0.047.

Which switch fluorescence ratio does the source give for CCGGGGGAAG here?
The switch fluorescence ratio was 1.04 ± 0.035.

For CCGGGGGATT, which switch fluorescence ratio is on record?
Its switch fluorescence ratio is 1.4 ± 0.49.

For CCGGGGGCAG, which switch fluorescence ratio is on record?
Its switch fluorescence ratio is 1.105 ± 0.0064.

How did the switch fluorescence ratio turn out when CCGGGGGCCT was run?
The switch fluorescence ratio was 1.08 ± 0.032.

CCGGGGGCGG was tested. Which switch fluorescence ratio did it give?
Its switch fluorescence ratio is 1.01 ± 0.015.

Which switch fluorescence ratio does the source give for CCGGGGGCTC here?
Its switch fluorescence ratio is 1.87 ± 0.97.

For CCGGGGGCTT, which switch fluorescence ratio is on record?
Its switch fluorescence ratio is 1.22 ± 0.019.

Which switch fluorescence ratio does the source give for CCGGGGGGCT here?
Its switch fluorescence ratio is 1.09 ± 0.043.

How did the switch fluorescence ratio turn out when CCGGGGGTGC was run?
The switch fluorescence ratio was 1.24 ± 0.27.

With CCGGGGTAGG as the sequence, how does the switch fluorescence ratio read?
The switch fluorescence ratio was 1.04 ± 0.024.

CCGGGGTCCG was tested. Which switch fluorescence ratio did it give?
Its switch fluorescence ratio is 1.13 ± 0.041.

With CCGGGGTCGC as the sequence, how does the switch fluorescence ratio read?
Its switch fluorescence ratio is 1 ± 0.026.

How did the switch fluorescence ratio turn out when CCGGGGTTAT was run?
The switch fluorescence ratio was 1.119 ± 0.0047.

Which switch fluorescence ratio does the source give for CCGGGGTTGG here?
The switch fluorescence ratio was 1 ± 0.012.

For CCGGGGTTGT, which switch fluorescence ratio is on record?
Its switch fluorescence ratio is 1.16 ± 0.22.

CCGGGTCAGC was tested. Which switch fluorescence ratio did it give?
Its switch fluorescence ratio is 1.21 ± 0.026.

Which switch fluorescence ratio does the source give for CCGGGTGAAG here?
Its switch fluorescence ratio is 1.07 ± 0.063.

CCGGGTGGTT was tested. Which switch fluorescence ratio did it give?
Its switch fluorescence ratio is 1.02 ± 0.08.

How did the switch fluorescence ratio turn out when CCGGGTTCGC was run?
The switch fluorescence ratio was 0.998 ± 0.083.

With CCGGTACTTT as the sequence, how does the switch fluorescence ratio read?
Its switch fluorescence ratio is 1.05 ± 0.016.

For CCGGTATTGT, which switch fluorescence ratio is on record?
The switch fluorescence ratio was 1.03 ± 0.037.

How did the switch fluorescence ratio turn out when CCGGTCTAGC was run?
Its switch fluorescence ratio is 1.14 ± 0.041.

How did the switch fluorescence ratio turn out when CCGGTGGATT was run?
The switch fluorescence ratio was 1.21 ± 0.3.

Which switch fluorescence ratio does the source give for CCGGTGTGAG here?
The switch fluorescence ratio was 1.04 ± 0.021.

Which switch fluorescence ratio does the source give for CCGGTTAAGG here?
Its switch fluorescence ratio is 1 ± 0.05.

CCGGTTACGT was tested. Which switch fluorescence ratio did it give?
Its switch fluorescence ratio is 1.17 ± 0.2.

Which switch fluorescence ratio does the source give for CCGGTTAGG here?
Its switch fluorescence ratio is 0.998 ± 0.045.

Which switch fluorescence ratio does the source give for CCGGTTATAA here?
The switch fluorescence ratio was 1.278 ± 0.009.

How did the switch fluorescence ratio turn out when CCGGTTTGTC was run?
Its switch fluorescence ratio is 1.02 ± 0.044.

How did the switch fluorescence ratio turn out when CCGTAGAGTT was run?
Its switch fluorescence ratio is 1.29 ± 0.031.

For CCGTAGTGGT, which switch fluorescence ratio is on record?
Its switch fluorescence ratio is 2.9 ± 1.4.

For CCGTATAAGG, which switch fluorescence ratio is on record?
The switch fluorescence ratio was 1.023 ± 0.0038.

Which switch fluorescence ratio does the source give for CCGTATGGAG here?
The switch fluorescence ratio was 0.9959 ± 0.002.

How did the switch fluorescence ratio turn out when CCGTCGGTCG was run?
Its switch fluorescence ratio is 1 ± 0.023.

For CCGTCTAATA, which switch fluorescence ratio is on record?
The switch fluorescence ratio was 1.42 ± 0.49.

CCGTGCGAAA was tested. Which switch fluorescence ratio did it give?
Its switch fluorescence ratio is 2.99 ± 0.59.

For CCGTGGGTGT, which switch fluorescence ratio is on record?
The switch fluorescence ratio was 1.26 ± 0.15.

How did the switch fluorescence ratio turn out when CCGTGGTTTA was run?
The switch fluorescence ratio was 1 ± 0.01.

With CCGTTAGAGG as the sequence, how does the switch fluorescence ratio read?
Its switch fluorescence ratio is 1.01 ± 0.038.

For CCGTTAGGCG, which switch fluorescence ratio is on record?
Its switch fluorescence ratio is 0.987 ± 0.029.

With CCGTTAGTGG as the sequence, how does the switch fluorescence ratio read?
The switch fluorescence ratio was 1.04 ± 0.042.

CCGTTATGCA was tested. Which switch fluorescence ratio did it give?
Its switch fluorescence ratio is 1.26 ± 0.018.

For CCGTTCAGAA, which switch fluorescence ratio is on record?
Its switch fluorescence ratio is 1.08 ± 0.019.

For CCGTTTCGGT, which switch fluorescence ratio is on record?
The switch fluorescence ratio was 0.976 ± 0.014.

Which switch fluorescence ratio does the source give for CCGTTTGTTT here?
The switch fluorescence ratio was 1.005 ± 0.005.

With CCGTTTTAGT as the sequence, how does the switch fluorescence ratio read?
The switch fluorescence ratio was 1.02 ± 0.039.

How did the switch fluorescence ratio turn out when CCTAATGGGC was run?
Its switch fluorescence ratio is 1.014 ± 0.0092.

With CCTACTTCCA as the sequence, how does the switch fluorescence ratio read?
The switch fluorescence ratio was 1.103 ± 0.0013.

CCTAGCGCGC was tested. Which switch fluorescence ratio did it give?
The switch fluorescence ratio was 1.09 ± 0.043.

How did the switch fluorescence ratio turn out when CCTAGGCCCG was run?
Its switch fluorescence ratio is 1.03 ± 0.053.

For CCTAGGGGGT, which switch fluorescence ratio is on record?
The switch fluorescence ratio was 1.02 ± 0.029.

CCTAGGGTGT was tested. Which switch fluorescence ratio did it give?
The switch fluorescence ratio was 2.12 ± 0.32.

For CCTAGGGTTT, which switch fluorescence ratio is on record?
The switch fluorescence ratio was 1 ± 0.038.

CCTATACGGG was tested. Which switch fluorescence ratio did it give?
The switch fluorescence ratio was 1.03 ± 0.049.

For CCTATATAGA, which switch fluorescence ratio is on record?
Its switch fluorescence ratio is 0.999 ± 0.029.

CCTATGGTTC was tested. Which switch fluorescence ratio did it give?
Its switch fluorescence ratio is 1.07 ± 0.053.

Which switch fluorescence ratio does the source give for CCTATTACGA here?
The switch fluorescence ratio was 1.04 ± 0.015.

For CCTATTATTA, which switch fluorescence ratio is on record?
The switch fluorescence ratio was 1.02 ± 0.028.

With CCTATTCCGG as the sequence, how does the switch fluorescence ratio read?
Its switch fluorescence ratio is 1.05 ± 0.03.

For CCTATTCGTT, which switch fluorescence ratio is on record?
The switch fluorescence ratio was 1.0064 ± 0.0008.

With CCTATTTTTT as the sequence, how does the switch fluorescence ratio read?
Its switch fluorescence ratio is 1.01 ± 0.034.

With CCTCAATGGT as the sequence, how does the switch fluorescence ratio read?
The switch fluorescence ratio was 1.39 ± 0.045.

How did the switch fluorescence ratio turn out when CCTCACCCTT was run?
The switch fluorescence ratio was 1.13 ± 0.013.

Which switch fluorescence ratio does the source give for CCTCACTAGT here?
The switch fluorescence ratio was 1.0949 ± 8.2e-05.

Which switch fluorescence ratio does the source give for CCTCATCTTG here?
Its switch fluorescence ratio is 1.018 ± 0.0048.

Which switch fluorescence ratio does the source give for CCTCGGGGGG here?
The switch fluorescence ratio was 1.06 ± 0.1.

How did the switch fluorescence ratio turn out when CCTCTGGAGG was run?
Its switch fluorescence ratio is 1.09 ± 0.013.

Which switch fluorescence ratio does the source give for CCTCTTGAGG here?
The switch fluorescence ratio was 0.978 ± 0.016.

CCTGAAACCT was tested. Which switch fluorescence ratio did it give?
Its switch fluorescence ratio is 1.51 ± 0.48.

CCTGAGATAC was tested. Which switch fluorescence ratio did it give?
The switch fluorescence ratio was 1.88 ± 1.

How did the switch fluorescence ratio turn out when CCTGAGGTTC was run?
The switch fluorescence ratio was 1.03 ± 0.061.

With CCTGAGTTC as the sequence, how does the switch fluorescence ratio read?
Its switch fluorescence ratio is 0.996 ± 0.031.

CCTGGAAAGT was tested. Which switch fluorescence ratio did it give?
Its switch fluorescence ratio is 0.985 ± 0.0074.

CCTGGCATGC was tested. Which switch fluorescence ratio did it give?
Its switch fluorescence ratio is 2.56 ± 0.24.

With CCTGGCATTG as the sequence, how does the switch fluorescence ratio read?
The switch fluorescence ratio was 1.18 ± 0.09.

CCTGGCATTT was tested. Which switch fluorescence ratio did it give?
Its switch fluorescence ratio is 2.2 ± 1.4.

How did the switch fluorescence ratio turn out when CCTGGCCAGC was run?
Its switch fluorescence ratio is 0.978 ± 0.015.

How did the switch fluorescence ratio turn out when CCTGGCTATC was run?
The switch fluorescence ratio was 3.44 ± 0.91.

How did the switch fluorescence ratio turn out when CCTGGCTCAT was run?
The switch fluorescence ratio was 1.06 ± 0.037.

For CCTGGGATT, which switch fluorescence ratio is on record?
The switch fluorescence ratio was 1.02 ± 0.011.

CCTGGGGAAA was tested. Which switch fluorescence ratio did it give?
The switch fluorescence ratio was 0.946 ± 0.021.

With CCTGGGGATT as the sequence, how does the switch fluorescence ratio read?
The switch fluorescence ratio was 1.07 ± 0.18.

How did the switch fluorescence ratio turn out when CCTGGGGGTC was run?
The switch fluorescence ratio was 1.03 ± 0.024.

How did the switch fluorescence ratio turn out when CCTGGGGTAT was run?
The switch fluorescence ratio was 1.09 ± 0.05.

For CCTGGGGTCG, which switch fluorescence ratio is on record?
The switch fluorescence ratio was 1.05 ± 0.05.

How did the switch fluorescence ratio turn out when CCTGGGTCGA was run?
The switch fluorescence ratio was 1.022 ± 0.0044.

From the supplement of paper PMC10126150
